Patent publication US20090169520A1 (YISSUM RESEARCH DEVELOPMENT COMPANY OF THE HEBREW …, published 2009)
Blank lines part the entries; values can stand above or below the binder they belong to.

Target: synthetic Aβ (1-40) peptide (Biosource) (UniProt P05067 672-711)
Assay: cell-based or functional assay

synthetic Aβ (1-40) peptide (Biosource), sequence (P05067 672-711 limits assumed): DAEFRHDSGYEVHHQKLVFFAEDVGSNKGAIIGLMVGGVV

- Lag (fold change) of Aβ fibrillation against no addition: 1.5 fold
- Lag (h) before onset of Aβ fibrillation: 5.9 h
- Rate (fold change) of Aβ fibrillation against no addition: 0.7 fold
B1: ASP63 (synthetic AChE-S C-terminal peptide, residues 548-610 of hAChE) (peptide)
peptide: PLEVRRGLRAQACAFWNRFLPKLLSATDTLDEAERQWKAEFHRWSSYMVHWKNQFDHYSKQDR

- Lag (fold change) of Aβ fibrillation against no addition: > 1.9 fold
- Lag (h) before onset of Aβ fibrillation: > 7.5 h
- Rate (fold change) of Aβ fibrillation against no addition: 0.4 fold
Binder: GNIDEAEWEWKAGFHRWNNYMMDWKNQFNDYTSKKESCVGL [BSP41 (synthetic BChE C-terminal peptide, residues 562-602 of hBChE)]

- Lag (fold change) of Aβ fibrillation against no addition: 1.1 fold
- Lag (h) before onset of Aβ fibrillation: 4.4 h
- Rate (fold change) of Aβ fibrillation against no addition: 0.8 fold
Binder: DTLDEAERQWKAEFHRWSSYMVHWKNQFDHYSKQDRCSDL [ASP40 (synthetic AChE-S C-terminal peptide, residues 575-614 of hAChE)]
